Paper PMC9482650, “Quantitative fragmentomics allow affinity mapping of interactomes” (Nature Communications, 2022)

T1: HTRA3, P83110
T1 sequence (P83110 354-453, limits assumed, looked up): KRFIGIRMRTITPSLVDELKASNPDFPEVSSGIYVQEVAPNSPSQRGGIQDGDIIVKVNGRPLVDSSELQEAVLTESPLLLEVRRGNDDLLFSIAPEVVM

T2: DVL3, Q92997
T2 sequence (Q92997 244-331, limits assumed, looked up): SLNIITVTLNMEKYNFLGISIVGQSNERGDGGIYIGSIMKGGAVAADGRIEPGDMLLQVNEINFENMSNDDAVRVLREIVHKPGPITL

T3: MPDZ_12, O75970
T3 sequence (O75970 1857-1958, limits assumed, looked up): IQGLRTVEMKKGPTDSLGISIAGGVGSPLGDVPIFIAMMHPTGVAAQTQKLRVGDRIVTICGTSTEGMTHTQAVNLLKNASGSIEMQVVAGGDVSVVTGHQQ

T4: LNX2_3, Q8N448
T4 sequence (Q8N448 463-564, limits assumed, looked up): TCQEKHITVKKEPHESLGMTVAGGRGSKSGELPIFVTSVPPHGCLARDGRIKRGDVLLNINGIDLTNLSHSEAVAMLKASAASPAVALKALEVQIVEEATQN

T5: LRRC7, Q96NW7
T5 sequence (Q96NW7 1440-1537, limits assumed, looked up): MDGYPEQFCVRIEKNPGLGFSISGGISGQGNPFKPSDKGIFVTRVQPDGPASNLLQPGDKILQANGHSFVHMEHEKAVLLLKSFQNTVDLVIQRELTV

T6: GRIP1_7, Q9Y3R0
T6 sequence (Q9Y3R0 999-1096, limits assumed, looked up): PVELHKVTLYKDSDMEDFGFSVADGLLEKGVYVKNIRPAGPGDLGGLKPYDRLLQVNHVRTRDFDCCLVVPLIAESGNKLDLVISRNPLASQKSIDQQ

T7: CARD11, Q9BXL7
T7 sequence (Q9BXL7 662-765, limits assumed, looked up): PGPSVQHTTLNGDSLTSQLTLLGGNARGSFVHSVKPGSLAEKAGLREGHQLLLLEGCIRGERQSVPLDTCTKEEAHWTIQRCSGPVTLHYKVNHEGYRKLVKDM

T8: ARHGEF11, O15085
T8 sequence (O15085 42-136, limits assumed, looked up): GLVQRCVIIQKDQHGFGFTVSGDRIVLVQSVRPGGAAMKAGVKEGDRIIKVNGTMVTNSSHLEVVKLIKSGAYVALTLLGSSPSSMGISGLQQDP

T9: GRIP1_3, Q9Y3R0
T9 sequence (Q9Y3R0 247-346, limits assumed, looked up): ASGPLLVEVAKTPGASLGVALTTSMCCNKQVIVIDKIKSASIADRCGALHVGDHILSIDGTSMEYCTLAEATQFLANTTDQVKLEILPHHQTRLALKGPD

T10: RHPN1, Q8TCX5
T10 sequence (Q8TCX5 508-602, limits assumed, looked up): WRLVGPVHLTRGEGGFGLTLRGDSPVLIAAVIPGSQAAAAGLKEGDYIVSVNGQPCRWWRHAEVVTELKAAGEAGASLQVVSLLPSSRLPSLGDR

B1: RAMP3, O60896 (peptide)
chain: WRSKRTDTLL

target: IL16_1, Q14005; assay: holdup assay; design: key: below the threshold = too weak to quantify, mostly under pKd 3.1 to 4; conditions: plain residues with an end cap or a label only (N-terminal biotin on a linker: ado-ado)
Sequence (Q14005 210-306): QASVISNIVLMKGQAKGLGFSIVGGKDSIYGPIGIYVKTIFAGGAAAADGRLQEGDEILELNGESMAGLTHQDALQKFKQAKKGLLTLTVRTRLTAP

| Binder | pKd |
| --- | --- |
| B1 | below the threshold |

target: NHERF4_1, Q86UT5-2; assay: holdup assay; design: key: below the threshold = too weak to quantify, mostly under pKd 3.1 to 4; conditions: plain residues with an end cap or a label only (N-terminal biotin on a linker: ado-ado)
Sequence (Q86UT5 other isoform, or with tags, fused parts or gaps): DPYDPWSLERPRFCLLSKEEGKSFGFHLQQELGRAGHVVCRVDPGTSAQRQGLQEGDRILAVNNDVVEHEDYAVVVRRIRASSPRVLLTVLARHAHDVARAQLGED

| Binder | pKd |
| --- | --- |
| B1 | 4.33 |

target: T1, HTRA3, P83110; assay: holdup assay; design: key: below the threshold = too weak to quantify, mostly under pKd 3.1 to 4; conditions: plain residues with an end cap or a label only (N-terminal biotin on a linker: ado-ado)

| Binder | pKd |
| --- | --- |
| B1 | below the threshold |

target: T2, DVL3, Q92997; assay: holdup assay; design: key: below the threshold = too weak to quantify, mostly under pKd 3.1 to 4; conditions: plain residues with an end cap or a label only (N-terminal biotin on a linker: ado-ado)

| Binder | pKd |
| --- | --- |
| B1 | below the threshold |

target: T3, MPDZ_12, O75970; assay: holdup assay; design: key: below the threshold = too weak to quantify, mostly under pKd 3.1 to 4; conditions: plain residues with an end cap or a label only (N-terminal biotin on a linker: ado-ado)

| Binder | pKd |
| --- | --- |
| B1 | below the threshold |

target: MAGI1_2, Q96QZ7; assay: holdup assay; design: key: below the threshold = too weak to quantify, mostly under pKd 3.1 to 4; conditions: plain residues with an end cap or a label only (N-terminal biotin on a linker: ado-ado)
Sequence (Q96QZ7 456-580): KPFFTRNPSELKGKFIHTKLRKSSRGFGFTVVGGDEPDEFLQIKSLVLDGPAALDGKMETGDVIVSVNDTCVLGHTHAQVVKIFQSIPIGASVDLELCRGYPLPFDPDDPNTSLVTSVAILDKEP

| Binder | pKd |
| --- | --- |
| B1 | 4.43 |

target: T4, LNX2_3, Q8N448; assay: holdup assay; design: key: below the threshold = too weak to quantify, mostly under pKd 3.1 to 4; conditions: plain residues with an end cap or a label only (N-terminal biotin on a linker: ado-ado)

| Binder | pKd |
| --- | --- |
| B1 | below the threshold |

target: LNX1_3, Q8TBB1; assay: holdup assay; design: key: below the threshold = too weak to quantify, mostly under pKd 3.1 to 4; conditions: plain residues with an end cap or a label only (N-terminal biotin on a linker: ado-ado)
Sequence (Q8TBB1 500-596): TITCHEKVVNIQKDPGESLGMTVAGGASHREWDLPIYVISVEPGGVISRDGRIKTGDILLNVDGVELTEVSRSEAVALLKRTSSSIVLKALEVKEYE

| Binder | pKd |
| --- | --- |
| B1 | below the threshold |

target: GIPC2, Q8TF65; assay: holdup assay; design: key: below the threshold = too weak to quantify, mostly under pKd 3.1 to 4; conditions: plain residues with an end cap or a label only (N-terminal biotin on a linker: ado-ado)
Sequence (Q8TF65 112-203): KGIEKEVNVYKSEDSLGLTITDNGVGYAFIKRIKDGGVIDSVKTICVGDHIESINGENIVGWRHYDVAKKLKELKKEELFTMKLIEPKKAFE

| Binder | pKd |
| --- | --- |
| B1 | below the threshold |

target: GRIP2_5, Q9C0E4; assay: holdup assay; design: key: below the threshold = too weak to quantify, mostly under pKd 3.1 to 4; conditions: plain residues with an end cap or a label only (N-terminal biotin on a linker: ado-ado)
Sequence (Q9C0E4 544-642): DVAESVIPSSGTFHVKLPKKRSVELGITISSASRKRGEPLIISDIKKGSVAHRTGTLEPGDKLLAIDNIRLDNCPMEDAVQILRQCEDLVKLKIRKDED

| Binder | pKd |
| --- | --- |
| B1 | below the threshold |

target: T5, LRRC7, Q96NW7; assay: holdup assay; design: key: below the threshold = too weak to quantify, mostly under pKd 3.1 to 4; conditions: plain residues with an end cap or a label only (N-terminal biotin on a linker: ado-ado)

| Binder | pKd |
| --- | --- |
| B1 | below the threshold |

target: SCRIB_1, Q14160; assay: holdup assay; design: key: below the threshold = too weak to quantify, mostly under pKd 3.1 to 4; conditions: plain residues with an end cap or a label only (N-terminal biotin on a linker: ado-ado)
Sequence (Q14160 718-814): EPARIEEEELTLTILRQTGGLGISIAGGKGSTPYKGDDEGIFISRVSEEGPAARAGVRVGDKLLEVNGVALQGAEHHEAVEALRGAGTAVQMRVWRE

| Binder | pKd |
| --- | --- |
| B1 | 3.92 |

target: LNX1_1, Q8TBB1; assay: holdup assay; design: key: below the threshold = too weak to quantify, mostly under pKd 3.1 to 4; conditions: plain residues with an end cap or a label only (N-terminal biotin on a linker: ado-ado)
Sequence (Q8TBB1 261-371): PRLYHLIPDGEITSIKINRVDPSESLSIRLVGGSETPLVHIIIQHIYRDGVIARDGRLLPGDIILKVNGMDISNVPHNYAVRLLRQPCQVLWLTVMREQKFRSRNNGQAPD

| Binder | pKd |
| --- | --- |
| B1 | below the threshold |

target: T6, GRIP1_7, Q9Y3R0; assay: holdup assay; design: key: below the threshold = too weak to quantify, mostly under pKd 3.1 to 4; conditions: plain residues with an end cap or a label only (N-terminal biotin on a linker: ado-ado)

| Binder | pKd |
| --- | --- |
| B1 | below the threshold |

target: DLG5_1, Q8TDM6; assay: holdup assay; design: key: below the threshold = too weak to quantify, mostly under pKd 3.1 to 4; conditions: plain residues with an end cap or a label only (N-terminal biotin on a linker: ado-ado)
Sequence (Q8TDM6 617-713): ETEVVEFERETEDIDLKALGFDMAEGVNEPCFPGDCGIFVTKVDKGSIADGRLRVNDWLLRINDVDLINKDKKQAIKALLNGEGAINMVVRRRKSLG

| Binder | pKd |
| --- | --- |
| B1 | below the threshold |

target: GRASP, Q7Z6J2; assay: holdup assay; design: key: below the threshold = too weak to quantify, mostly under pKd 3.1 to 4; conditions: plain residues with an end cap or a label only (N-terminal biotin on a linker: ado-ado)
Sequence (Q7Z6J2 96-193): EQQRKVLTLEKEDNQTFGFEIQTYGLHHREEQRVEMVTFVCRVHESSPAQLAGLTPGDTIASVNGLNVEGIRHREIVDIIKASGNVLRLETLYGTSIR

| Binder | pKd |
| --- | --- |
| B1 | below the threshold |

target: NHERF4_4, Q86UT5; assay: holdup assay; design: key: below the threshold = too weak to quantify, mostly under pKd 3.1 to 4; conditions: plain residues with an end cap or a label only (N-terminal biotin on a linker: ado-ado)
Sequence (Q86UT5 464-550): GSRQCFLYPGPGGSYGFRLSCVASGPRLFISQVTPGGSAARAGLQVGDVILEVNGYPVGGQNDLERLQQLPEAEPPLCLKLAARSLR

| Binder | pKd |
| --- | --- |
| B1 | below the threshold |

target: NHERF4_2, Q86UT5; assay: holdup assay; design: key: below the threshold = too weak to quantify, mostly under pKd 3.1 to 4; conditions: plain residues with an end cap or a label only (N-terminal biotin on a linker: ado-ado)
Sequence (Q86UT5 220-308): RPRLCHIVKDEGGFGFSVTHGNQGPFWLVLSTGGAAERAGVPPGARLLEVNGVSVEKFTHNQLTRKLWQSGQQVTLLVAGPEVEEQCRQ

| Binder | pKd |
| --- | --- |
| B1 | below the threshold |

target: Inadl_10, Q8NI35; assay: holdup assay; design: key: below the threshold = too weak to quantify, mostly under pKd 3.1 to 4; conditions: plain residues with an end cap or a label only (N-terminal biotin on a linker: ado-ado)
Sequence (Q8NI35 1673-1763): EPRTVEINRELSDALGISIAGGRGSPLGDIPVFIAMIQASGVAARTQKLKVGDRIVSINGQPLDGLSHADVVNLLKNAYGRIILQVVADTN

| Binder | pKd |
| --- | --- |
| B1 | below the threshold |

target: LDB3, O75112; assay: holdup assay; design: key: below the threshold = too weak to quantify, mostly under pKd 3.1 to 4; conditions: plain residues with an end cap or a label only (N-terminal biotin on a linker: ado-ado)
Sequence (O75112 1-94): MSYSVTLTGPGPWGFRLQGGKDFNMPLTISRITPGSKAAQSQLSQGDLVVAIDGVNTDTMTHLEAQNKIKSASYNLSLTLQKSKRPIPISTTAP

| Binder | pKd |
| --- | --- |
| B1 | below the threshold |

target: T7, CARD11, Q9BXL7; assay: holdup assay; design: key: below the threshold = too weak to quantify, mostly under pKd 3.1 to 4; conditions: plain residues with an end cap or a label only (N-terminal biotin on a linker: ado-ado)

| Binder | pKd |
| --- | --- |
| B1 | below the threshold |

target: T8, ARHGEF11, O15085; assay: holdup assay; design: key: below the threshold = too weak to quantify, mostly under pKd 3.1 to 4; conditions: plain residues with an end cap or a label only (N-terminal biotin on a linker: ado-ado)

| Binder | pKd |
| --- | --- |
| B1 | 3.47 |

target: TJP1_3, Q07157; assay: holdup assay; design: key: below the threshold = too weak to quantify, mostly under pKd 3.1 to 4; conditions: plain residues with an end cap or a label only (N-terminal biotin on a linker: ado-ado)
Sequence (Q07157 416-512): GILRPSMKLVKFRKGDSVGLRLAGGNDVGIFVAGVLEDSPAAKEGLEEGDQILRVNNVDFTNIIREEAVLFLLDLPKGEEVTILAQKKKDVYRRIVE

| Binder | pKd |
| --- | --- |
| B1 | below the threshold |

target: T9, GRIP1_3, Q9Y3R0; assay: holdup assay; design: key: below the threshold = too weak to quantify, mostly under pKd 3.1 to 4; conditions: plain residues with an end cap or a label only (N-terminal biotin on a linker: ado-ado)

| Binder | pKd |
| --- | --- |
| B1 | below the threshold |

target: TJP1_2, Q07157; assay: holdup assay; design: key: below the threshold = too weak to quantify, mostly under pKd 3.1 to 4; conditions: plain residues with an end cap or a label only (N-terminal biotin on a linker: ado-ado)
Sequence (Q07157 181-274): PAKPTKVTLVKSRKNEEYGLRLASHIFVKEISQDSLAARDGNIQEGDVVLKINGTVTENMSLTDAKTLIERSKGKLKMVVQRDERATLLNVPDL

| Binder | pKd |
| --- | --- |
| B1 | 3.55 |

target: MAGI2_3, Q86UL8; assay: holdup assay; design: key: below the threshold = too weak to quantify, mostly under pKd 3.1 to 4; conditions: plain residues with an end cap or a label only (N-terminal biotin on a linker: ado-ado)
Sequence (Q86UL8 600-682): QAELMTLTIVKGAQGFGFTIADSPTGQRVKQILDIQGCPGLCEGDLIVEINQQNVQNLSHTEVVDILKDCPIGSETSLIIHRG

| Binder | pKd |
| --- | --- |
| B1 | below the threshold |

target: T10, RHPN1, Q8TCX5; assay: holdup assay; design: key: below the threshold = too weak to quantify, mostly under pKd 3.1 to 4; conditions: plain residues with an end cap or a label only (N-terminal biotin on a linker: ado-ado)

| Binder | pKd |
| --- | --- |
| B1 | 4.04 |

target: PDZRN4_1, Q6ZMN7; assay: holdup assay; design: key: below the threshold = too weak to quantify, mostly under pKd 3.1 to 4; conditions: plain residues with an end cap or a label only (N-terminal biotin on a linker: ado-ado)
Sequence (Q6ZMN7 213-318): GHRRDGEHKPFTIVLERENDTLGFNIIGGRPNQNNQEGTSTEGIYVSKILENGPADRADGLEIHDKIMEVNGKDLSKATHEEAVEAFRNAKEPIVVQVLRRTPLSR

| Binder | pKd |
| --- | --- |
| B1 | 3.75 |
